This experiment concerns the target T1, ZCCHC6 (human, UniProt Q5VYS8 1-1495, limits assumed).
T1 sequence (looked up): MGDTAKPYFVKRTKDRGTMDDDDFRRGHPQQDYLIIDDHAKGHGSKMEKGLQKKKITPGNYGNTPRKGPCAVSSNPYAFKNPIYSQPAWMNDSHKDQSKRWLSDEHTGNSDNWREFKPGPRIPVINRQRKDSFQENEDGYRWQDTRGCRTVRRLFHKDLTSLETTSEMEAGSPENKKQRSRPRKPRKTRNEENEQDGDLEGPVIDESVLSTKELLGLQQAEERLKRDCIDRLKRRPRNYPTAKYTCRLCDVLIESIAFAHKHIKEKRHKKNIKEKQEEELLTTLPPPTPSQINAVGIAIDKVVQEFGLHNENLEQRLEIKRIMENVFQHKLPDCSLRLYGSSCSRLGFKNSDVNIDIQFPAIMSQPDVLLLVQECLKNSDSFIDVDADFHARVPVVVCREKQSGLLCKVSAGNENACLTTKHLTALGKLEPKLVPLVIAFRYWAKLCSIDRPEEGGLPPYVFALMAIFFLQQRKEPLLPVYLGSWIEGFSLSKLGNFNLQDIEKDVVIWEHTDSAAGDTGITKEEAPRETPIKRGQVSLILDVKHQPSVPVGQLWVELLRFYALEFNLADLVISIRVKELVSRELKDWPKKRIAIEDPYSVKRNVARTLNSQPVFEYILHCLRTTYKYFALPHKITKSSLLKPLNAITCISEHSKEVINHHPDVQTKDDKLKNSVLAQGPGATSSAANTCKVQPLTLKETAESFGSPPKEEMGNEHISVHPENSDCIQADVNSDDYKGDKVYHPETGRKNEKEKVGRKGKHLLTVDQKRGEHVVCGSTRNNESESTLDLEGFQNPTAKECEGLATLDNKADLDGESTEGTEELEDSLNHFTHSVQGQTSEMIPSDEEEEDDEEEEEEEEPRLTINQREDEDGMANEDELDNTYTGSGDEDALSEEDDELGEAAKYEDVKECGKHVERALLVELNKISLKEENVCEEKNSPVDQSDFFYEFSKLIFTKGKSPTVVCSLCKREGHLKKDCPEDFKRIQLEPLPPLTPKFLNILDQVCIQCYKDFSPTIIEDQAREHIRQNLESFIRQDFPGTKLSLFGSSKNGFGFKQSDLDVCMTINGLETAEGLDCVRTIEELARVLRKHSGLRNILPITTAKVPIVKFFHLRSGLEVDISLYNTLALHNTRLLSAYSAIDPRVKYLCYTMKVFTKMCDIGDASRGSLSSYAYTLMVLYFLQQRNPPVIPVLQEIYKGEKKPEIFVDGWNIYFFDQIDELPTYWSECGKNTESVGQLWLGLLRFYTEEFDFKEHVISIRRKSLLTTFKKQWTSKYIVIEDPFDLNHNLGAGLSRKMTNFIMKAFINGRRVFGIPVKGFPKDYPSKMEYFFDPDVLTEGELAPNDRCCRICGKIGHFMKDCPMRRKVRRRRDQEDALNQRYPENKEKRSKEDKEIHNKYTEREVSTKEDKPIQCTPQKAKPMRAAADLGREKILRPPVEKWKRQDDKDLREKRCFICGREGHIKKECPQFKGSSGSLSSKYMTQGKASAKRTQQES
Nature of the experiment: IP/MS, LZTR1 wild type-FLAG, U87. The procedure, abridged: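 Gel slices were reduced with 5 mM DTT, alkylated with 11 mM IAA and digested overnight at 37° C. with trypsin. Peptides were analysed on an Orbitrap Fusion Tribrid by LC-MS/MS.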

The record followed here is US20250262210A1 (TRUSTEES OF COLUMBIA UNIVERSITY IN THE CITY OF NEW YORK, published 2025).

B1: LZTR1-FLAG (other, human, UniProt Q8N653 1-840, looked up)
chain: MAGPGSTGGQIGAAALAGGARSKVAPSVDFDHSCSDSVEYLTLNFGPFETVHRWRRLPPCDEFVGARRSKHTVVAYKDAIYVFGGDNGKTMLNDLLRFDVKDCSWCRAFTTGTPPAPRYHHSAVVYGSSMFVFGGYTGDIYSNSNLKNKNDLFEYKFATGQWTEWKIEGRLPVARSAHGATVYSDKLWIFAGYDGNARLNDMWTIGLQDRELTCWEEVAQSGEIPPSCCNFPVAVCRDKMFVFSGQSGAKITNNLFQFEFKDKTWTRIPTEHLLRGSPPPPQRRYGHTMVAFDRHLYVFGGAADNTLPNELHCYDVDFQTWEVVQPSSDSEVGGAEVPERACASEEVPTLTYEERVGFKKSRDVFGLDFGTTSAKQPTQPASELPSGRLFHAAAVISDAMYIFGGTVDNNIRSGEMYRFQFSCYPKCTLHEDYGRLWESRQFCDVEFVLGEKEECVQGHVAIVTARSRWLRRKITQARERLAQKLEQEAAPVPREAPGVAAGGARPPLLHVAIREAEARPFEVLMQFLYTDKIKYPRKGHVEDVLLIMDVYKLALSFQLCRLEQLCRQYIEASVDLQNVLVVCESAARLQLSQLKEHCLNFVVKESHFNQVIMMKEFERLSSPLIVEIVRRKQQPPPRTPLDQPVDIGTSLIQDMKAYLEGAGAEFCDITLLLDGHPRPAHKAILAARSSYFEAMFRSFMPEDGQVNISIGEMVPSRQAFESMLRYIYYGEVNMPPEDSLYLFAAPYYYGFYNNRLQAYCKQNLEMNVTVQNVLQILEAADKTQALDMKRHCLHIIVHQFTKVSKLPTLRSLSQQLLLDIIDSLASHISDKQCAELGADI
notes: Expressed in HEK 293T, HeLa or U87 cells; used as cell lysate; also called LZTR1 wild type-FLAG; LZTR1 WT; not shown: FLAG tag at the C-terminus
As to B1, the binding result is recorded as “binds”.
